According to paper PMC3274541 (2012):

Biological target: T1, GST-AIPL1 (Homo sapiens (Human), UniProt Q9NZN9)
T1 chain: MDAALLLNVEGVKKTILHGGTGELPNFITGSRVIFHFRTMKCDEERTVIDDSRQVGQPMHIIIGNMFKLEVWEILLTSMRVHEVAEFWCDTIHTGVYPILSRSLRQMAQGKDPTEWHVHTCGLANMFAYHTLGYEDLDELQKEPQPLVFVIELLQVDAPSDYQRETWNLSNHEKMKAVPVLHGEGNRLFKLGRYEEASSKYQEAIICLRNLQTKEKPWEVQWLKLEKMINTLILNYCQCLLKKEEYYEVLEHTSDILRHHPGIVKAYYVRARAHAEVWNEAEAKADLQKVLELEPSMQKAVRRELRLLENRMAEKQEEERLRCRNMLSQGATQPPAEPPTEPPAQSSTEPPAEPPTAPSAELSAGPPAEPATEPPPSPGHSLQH
Test: GST pull-down

- binding result: binds
B1: His6-FAT10, recombinant purified (protein)
chain: MAPNASCLCVHVRSEEWDLMTFDANPYDSVKKIKEHVRSKTKVPVQDQVLLLGSKILKPRRSLSSYGIDKEKTIHLTLKVVKPSDEELPLFLVESGDEAKRHLLQVRRSSSVAQVKAMIETKTGIIPETQIVTCNGKRLEDGKMMADYGIRKGNLLFLACYCIGG
